First the molecules themselves.
B1: GST-GSDMD truncation lacking aa 302-310 (natural protein)
chain: MGSAFERVVRRVVQELDHGGEFIPVTSLQSSTGFQPYCLVVRKPSSSWFWKPRYKCVNLSIKDILEPDAAEPDVQRGRSFHFYDAMDGQIQGSVELAAPGQAKIAGGAAVSDSSSTSMNVYSLSVDPNTWQTLLHERHLRQPEHKVLQQLRSRGDNVYVVTEVLQTQKEVEVTRTHKREGSGRFSLPGATCLQGEGQGHLSQKKTVTIPSGSTLAFRVAQLVIDSDLDVLLFPDKKQRTFQPPATGHKRSTSEGAWPQLPSGLSMMRCLHNFLTDGVPAEGAFTEDFQGLRAEVETISKELLLLEGLEGVLRDQLALRALEEALEQGQSLGPVEPLDGPAGAVLECLVLSSGMLVPELAIPVVYLLGALTMLSETQHKLLAEALESQTLLGPLELVGSLLEQSAPWQERSTMSLPPGLLGNSWGEGAPAWVLLDECGLELGEDTPHVCWEPQAQGRMCALYASLALLSGLSQEPH
B2: GST-GSDMD truncation lacking aa 350-368 (natural protein)
chain: MGSAFERVVRRVVQELDHGGEFIPVTSLQSSTGFQPYCLVVRKPSSSWFWKPRYKCVNLSIKDILEPDAAEPDVQRGRSFHFYDAMDGQIQGSVELAAPGQAKIAGGAAVSDSSSTSMNVYSLSVDPNTWQTLLHERHLRQPEHKVLQQLRSRGDNVYVVTEVLQTQKEVEVTRTHKREGSGRFSLPGATCLQGEGQGHLSQKKTVTIPSGSTLAFRVAQLVIDSDLDVLLFPDKKQRTFQPPATGHKRSTSEGAWPQLPSGLSMMRCLHNFLTDGVPAEGAFTEDFQGLRAEVETISKELELLDRELCQLLLEGLEGVLRDQLALRALEEALEQGQSLGPVEPLDGPAIPVVYLLGALTMLSETQHKLLAEALESQTLLGPLELVGSLLEQSAPWQERSTMSLPPGLLGNSWGEGAPAWVLLDECGLELGEDTPHVCWEPQAQGRMCALYASLALLSGLSQEPH
B3: GST-GSDMD truncation lacking both aa 302-310 and aa 350-368 (natural protein)
chain: MGSAFERVVRRVVQELDHGGEFIPVTSLQSSTGFQPYCLVVRKPSSSWFWKPRYKCVNLSIKDILEPDAAEPDVQRGRSFHFYDAMDGQIQGSVELAAPGQAKIAGGAAVSDSSSTSMNVYSLSVDPNTWQTLLHERHLRQPEHKVLQQLRSRGDNVYVVTEVLQTQKEVEVTRTHKREGSGRFSLPGATCLQGEGQGHLSQKKTVTIPSGSTLAFRVAQLVIDSDLDVLLFPDKKQRTFQPPATGHKRSTSEGAWPQLPSGLSMMRCLHNFLTDGVPAEGAFTEDFQGLRAEVETISKELLLLEGLEGVLRDQLALRALEEALEQGQSLGPVEPLDGPAIPVVYLLGALTMLSETQHKLLAEALESQTLLGPLELVGSLLEQSAPWQERSTMSLPPGLLGNSWGEGAPAWVLLDECGLELGEDTPHVCWEPQAQGRMCALYASLALLSGLSQEPH
B4: GST-GSDMD (full-length human GSDMD) (natural protein)
chain: MGSAFERVVRRVVQELDHGGEFIPVTSLQSSTGFQPYCLVVRKPSSSWFWKPRYKCVNLSIKDILEPDAAEPDVQRGRSFHFYDAMDGQIQGSVELAAPGQAKIAGGAAVSDSSSTSMNVYSLSVDPNTWQTLLHERHLRQPEHKVLQQLRSRGDNVYVVTEVLQTQKEVEVTRTHKREGSGRFSLPGATCLQGEGQGHLSQKKTVTIPSGSTLAFRVAQLVIDSDLDVLLFPDKKQRTFQPPATGHKRSTSEGAWPQLPSGLSMMRCLHNFLTDGVPAEGAFTEDFQGLRAEVETISKELELLDRELCQLLLEGLEGVLRDQLALRALEEALEQGQSLGPVEPLDGPAGAVLECLVLSSGMLVPELAIPVVYLLGALTMLSETQHKLLAEALESQTLLGPLELVGSLLEQSAPWQERSTMSLPPGLLGNSWGEGAPAWVLLDECGLELGEDTPHVCWEPQAQGRMCALYASLALLSGLSQEPH
B5: FLAG-tagged full-length GSDMD (natural protein)
chain: B4 chain
B6: caspase-1 p20 (C285A)-His / p10-His complex (complex)
chain 1: NPAMPTSSGSEGNVKLCSLEEAQRIWKQKSAEIYPIMDKSSRTRLALIICNEEFDSIPRRTGAEVDITGMTMLLQNLGYSVDVKKNLTASDMTTELEAFAHRPEHKTSDSTFLVFMSHGIREGICGKKHSEQVPDILQLNAIFNMLNTKNCPSLKDKPKVIIIQAARGDSPGVVWFKD
chain 2: AIKKAHIEKDFIAFCSSTPDNVSWRHPTMGSVFIGRLIEHMQEYACSCDVEEIFRKVRFSFEQPDGRAQMPTTERVTLTRCFYLFPGH

The target of assay [1] is His-tagged SARS-CoV-2 nucleocapsid (SARS-CoV-2, UniProt P0DTC9 1-419). Nature of the assay: pull-down.
The target of assay [2] is Myc-tagged SARS-CoV-2 nucleocapsid (SARS-CoV-2, UniProt P0DTC9 1-419). Nature of the assay: co-IP.
Assay [3] addresses B4. Nature of the assay: pull-down.

With PSGLSMMRCLHNFLTDGVPAEGAFTEDFQGL (domain or fragment) [GST-tagged GSDMD linker containing amino acids 260-290], the binding result in assay [1] is reported as “binds”.

For HNFLTDGVPAE (domain or fragment) [GST-tagged GSDMD linker containing amino acids 270-280], the binding result in assay [1] was “binds”. The same measure, in the same setting: the entry for B1 is “binds”; for B2 it is “binds”; for B3 it is “binds”. Regarding B4, the binding result in assay [1] is “binds”.

In the case of B5, the binding result in assay [2] was “binds”. For the molecule B6, the binding result in assay [3] was “binds”. On to MMRCLHNFLTDGVPAEGAFT (domain or fragment) [GST-tagged GSDMD linker containing amino acids 265-284], for which, in assay [1], the binding result is recorded as “binds”.

The values above are taken from paper PMC8420271 (The EMBO Journal, 2021).
